From patent US20220251222A1, “IL-6Ralpha/IL-8R BISPECIFIC BINDING AGENTS FOR INHIBITING CANCER CELL MIGRATION” (The Johns Hopkins University, priority 2019, published 2022)

Columns and labels:
[1] = molecular target: T1, IL-8 binding to IL-8R (Homo sapiens, UniProt P25025); test: IL-8 cell surface binding inhibition on IL-6Rα−/IL-8R+ HEK 293T cells; conditions: His-tagged IL-8 400 nM
T1 construct: expressed in transfected cells; host or cells: HEK 293T, lentiviral transduction (IL-6Rα−/IL-8R+)
T1 sequence (P25025 1-360): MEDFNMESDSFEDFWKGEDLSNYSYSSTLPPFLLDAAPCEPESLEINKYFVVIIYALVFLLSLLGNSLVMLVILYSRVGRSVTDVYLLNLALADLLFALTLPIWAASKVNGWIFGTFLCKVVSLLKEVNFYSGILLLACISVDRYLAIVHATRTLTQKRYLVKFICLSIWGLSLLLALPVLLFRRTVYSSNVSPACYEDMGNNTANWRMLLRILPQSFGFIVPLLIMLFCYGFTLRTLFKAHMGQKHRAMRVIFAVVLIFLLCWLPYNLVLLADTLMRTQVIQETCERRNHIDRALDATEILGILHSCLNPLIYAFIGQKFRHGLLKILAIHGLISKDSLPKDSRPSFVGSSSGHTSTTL
Protocol: Cells were then washed and incubated with 1:200 dilution of Alexa Fluor 647-conjugated streptavidin (Fisher Scientific, cat #: S21374) in PBSA for 15 min at 4° C. […] Curves were fitted to a first-order logistic model and IC50 values were calculated using GraphPad Prism data analysis software. Mean fluorescence intensity (MFI) of unstimulated cells was subtracted. […]

[2] = molecular target: T2, IL-6Rα (Homo sapiens, UniProt P08887); test: Cell surface binding on IL-6Rα+/IL-8R− HEK 293T cells (flow cytometry); conditions: 2 hr at 4° C.
T2 construct: expressed in transfected cells; host or cells: HEK 293T, lentiviral transduction (pCDH backbone)
T2 sequence (P08887 20-468): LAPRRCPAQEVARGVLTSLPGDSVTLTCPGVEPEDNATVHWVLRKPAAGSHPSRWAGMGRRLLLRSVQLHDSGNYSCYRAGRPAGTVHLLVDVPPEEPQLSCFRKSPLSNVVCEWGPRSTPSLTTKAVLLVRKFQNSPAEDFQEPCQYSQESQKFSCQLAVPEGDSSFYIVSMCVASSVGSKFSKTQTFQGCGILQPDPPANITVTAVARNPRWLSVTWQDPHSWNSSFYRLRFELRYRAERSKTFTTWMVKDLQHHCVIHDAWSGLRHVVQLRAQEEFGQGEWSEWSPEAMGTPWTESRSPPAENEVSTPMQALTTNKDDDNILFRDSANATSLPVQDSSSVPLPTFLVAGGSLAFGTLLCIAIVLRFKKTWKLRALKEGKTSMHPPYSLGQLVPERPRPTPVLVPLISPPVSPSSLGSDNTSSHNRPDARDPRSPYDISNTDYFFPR
Source text: GeneJuice (Sigma Aldrich) was used as the transfection reagent.
Mean fluorescence intensity (MFI) of unstimulated cells was subtracted.

IC50, competition with IL-8 binding to IL-8R [1]: did not exert any inhibitory effects | KD, binding to IL-6Rα on cells [2]: only recognized IL-6Rα^+ cells
Substance: tocilizumab
